Test results published in the supplement of paper PMC10126150.
± gives the standard deviation of the averaged measurements.

Tested on: ATP
Assay: switch fluorescence ratio, 500 uM ATP over buffer (Cy3 cluster intensity, sum of 5 cycles each) (fold (ratio)); higher = stronger signal-on switching upon ATP binding; sequences stand for … in TCGTCGGCAGCGTCAGATGTGTATAAGAGACAGTTTTTTTTTTTTTTTTTTTTTTTTT…TC
Details: aptamer strand: ATP DNA aptamer (quencher-CACCTGGGGGAGTATTGCGGAGGAAGG + anchor), 100 nM annealed; ATP concentration: 500 uM
Outline: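 Imaging in selection buffer was followed by imaging after 15 min with 500 uM ATP at 22 °C, for Cy3-labelled switching-strand clusters annealed to 100 nM quencher-labelled ATP aptamer on a modified Illumina MiSeq flow-cell. Five of these buffer/ATP cycles ran, separated by NaOH stripping and re-annealing. The fluorescence ratio per cluster is summed target-cycle over summed buffer-cycle Cy3 intensity, averaged per switch-domain sequence; clusters outside 100-1000 RFU were removed.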
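Further: ATP exposure 15 min at 22 °C before imaging.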

| Sequence | switch fluorescence ratio |
| --- | --- |
| GCGTTATCTT | 0.99586 ± 0.00081 |
| GCGTTATTGG | 1.03 ± 0.018 |
| GCGTTCGGGA | 0.984 ± 0.021 |
| GCGTTCTCGC | 0.968 ± 0.016 |
| GCGTTGAGCT | 0.987 ± 0.023 |
| GCGTTGATGA | 1.01 ± 0.019 |
| GCGTTGTGGG | 1.05 ± 0.024 |
| GCGTTTAGAT | 1.02 ± 0.013 |
| GCGTTTATGG | 1 ± 0.02 |
| GCGTTTGAGG | 0.981 ± 0.017 |
| GCGTTTGGG | 1.14 ± 0.15 |
| GCGTTTGGGG | 1.01 ± 0.043 |
| GCGTTTTACT | 1.034 ± 0.0051 |
| GCGTTTTTCG | 0.977 ± 0.042 |
| GCTAAAACCG | 1.06 ± 0.052 |
| GCTAAAGGGA | 1.03 ± 0.042 |
| GCTAACCGGG | 1 ± 0.0097 |
| GCTAACTAGG | 1.038 ± 0.0087 |
| GCTAAGGGGC | 1.03 ± 0.018 |
| GCTAAGTCGG | 0.982 ± 0.0085 |
| GCTAAGTTTA | 0.996 ± 0.025 |
| GCTAATTGGG | 1.004 ± 0.0021 |
| GCTACACGAA | 1.04 ± 0.027 |

| Sequence | switch fluorescence ratio |
| --- | --- |
| GCTACATGGG | 1.02 ± 0.015 |
| GCTACCTGGA | 1.19 ± 0.016 |
| GCTACGCGCT | 1.36 ± 0.021 |
| GCTAGATGTA | 1.02 ± 0.015 |
| GCTAGTGGGG | 0.999 ± 0.018 |
| GCTATAATCG | 1.073 ± 0.0027 |
| GCTATCGGTT | 1.01 ± 0.024 |
| GCTATCTGCC | 1.075 ± 0.01 |
| GCTATGGTTA | 1 ± 0.013 |
| GCTATGTGTA | 0.9748 ± 0.0051 |
| GCTATTGGGG | 0.993 ± 0.014 |
| GCTATTGGTA | 1.01 ± 0.03 |
| GCTATTGTTG | 1.03 ± 0.021 |
| GCTATTTAGT | 1.0108 ± 0.00043 |
| GCTATTTTTG | 0.999 ± 0.04 |
| GCTCAACTAA | 1.02 ± 0.02 |
| GCTCAAGCTA | 1.15 ± 0.021 |
| GCTCCTCACA | 1.67 ± 0.2 |
| GCTCGAAATG | 1.07 ± 0.031 |
| GCTCGAACGA | 0.995 ± 0.013 |
| GCTCGAAGTT | 0.978 ± 0.029 |
| GCTCGCAGAT | 1.21 ± 0.042 |
| GCTCGCCTGA | 0.995 ± 0.025 |

| Sequence | switch fluorescence ratio |
| --- | --- |
| GCTCGGGGGC | 1.008 ± 0.0081 |
| GCTCGGGTGT | 1.15 ± 0.33 |
| GCTCGGTTAG | 1.01 ± 0.018 |
| GCTCGGTTG | 1.01 ± 0.022 |
| GCTCGTATTA | 1 ± 0.016 |
| GCTCTATTTT | 0.997 ± 0.019 |
| GCTCTGGGTA | 1.05 ± 0.0082 |
| GCTCTTAGTG | 0.9894 ± 0.0032 |
| GCTCTTGATG | 0.98 ± 0.041 |
| GCTGACGGTT | 0.997 ± 0.024 |
| GCTGACTTGG | 0.9714 ± 0.0081 |
| GCTGAGCGGA | 0.995 ± 0.035 |
| GCTGAGGATA | 0.984 ± 0.013 |
| GCTGATATAA | 1.01 ± 0.019 |
| GCTGATCTTA | 0.998 ± 0.034 |
| GCTGATTTTT | 0.994 ± 0.025 |
| GCTGCAGGGG | 1.144 ± 0.0063 |
| GCTGCCACTA | 1.003 ± 0.004 |
| GCTGCCTAAA | 0.9809 ± 0.0019 |
| GCTGCGAGGT | 1.012 ± 0.0056 |
| GCTGCTAATA | 1.039 ± 0.01 |
| GCTGCTGCAC | 1.01 ± 0.049 |
| GCTGGAGTAT | 0.987 ± 0.026 |

| Sequence | switch fluorescence ratio |
| --- | --- |
| GCTGGCAATT | 1.027 ± 0.0069 |
| GCTGGGAATG | 0.98 ± 0.033 |
| GCTGGGAATT | 1 ± 0.016 |
| GCTGGGACGT | 1 ± 0.025 |
| GCTGGGACTT | 1.004 ± 0.0078 |
| GCTGGGAGGA | 1.02 ± 0.04 |
| GCTGGGATTG | 1.01 ± 0.035 |
| GCTGGGGCCA | 1.023 ± 0.0017 |
| GCTGGGGGAT | 1 ± 0.044 |
| GCTGGGGGCG | 0.987 ± 0.025 |
| GCTGGGTAGT | 1.01 ± 0.022 |
| GCTGGTGATC | 1.02 ± 0.012 |
| GCTGGTGCAC | 1.01 ± 0.026 |
| GCTGGTTGTT | 1.03 ± 0.041 |
| GCTGTAAGTT | 0.9897 ± 0.0067 |
| GCTGTAATCT | 0.999 ± 0.027 |
| GCTGTAGCGG | 1.02 ± 0.031 |
| GCTGTATGTT | 0.974 ± 0.022 |
| GCTGTATTAA | 0.997 ± 0.038 |
| GCTGTGGATG | 1.02 ± 0.024 |
| GCTGTGGGTG | 1 ± 0.021 |
| GCTGTGTGGC | 1.01 ± 0.047 |
| GCTGTGTGTC | 1.006 ± 0.0024 |

| Sequence | switch fluorescence ratio |
| --- | --- |
| GCTGTGTTTT | 1 ± 0.034 |
| GCTGTTCAAG | 1 ± 0.026 |
| GCTGTTCCTC | 1.07 ± 0.011 |
| GCTGTTGGCG | 0.9728 ± 0.0043 |
| GCTGTTTCGG | 0.981 ± 0.01 |
| GCTGTTTTGT | 1.004 ± 0.0092 |
| GCTTAAAAAT | 0.986 ± 0.095 |
| GCTTAAAGAC | 1.1 ± 0.013 |
| GCTTAAGTTA | 1 ± 0.057 |
| GCTTAATGTG | 0.968 ± 0.027 |
| GCTTACAACG | 1.02 ± 0.029 |
| GCTTACTCTG | 1.62 ± 0.085 |
| GCTTACTGCT | 0.947 ± 0.029 |
| GCTTATAGGC | 0.97 ± 0.032 |
| GCTTATCAGC | 0.991 ± 0.013 |
| GCTTATGGGA | 1 ± 0.039 |
| GCTTATTCAG | 0.976 ± 0.013 |
| GCTTATTGTA | 0.9813 ± 0.0081 |
| GCTTCAAGAC | 1.58 ± 0.0071 |
| GCTTCAGAGT | 1 ± 0.02 |
| GCTTCAGGAG | 1.27 ± 0.024 |
| GCTTCAGGCC | 1.02 ± 0.022 |
| GCTTCAGTAG | 1.11 ± 0.02 |

| Sequence | switch fluorescence ratio |
| --- | --- |
| GCTTCTGCGT | 1.02 ± 0.033 |
| GCTTCTTTTG | 1.09 ± 0.15 |
| GCTTGAAATT | 0.986 ± 0.062 |
| GCTTGCTCCG | 4.46 ± 0.87 |
| GCTTGGAGGG | 0.983 ± 0.027 |
| GCTTGGATCC | 0.966 ± 0.022 |
| GCTTGGATTG | 1.01 ± 0.054 |
| GCTTGGGTGC | 1.04 ± 0.067 |
| GCTTGTCTCG | 1 ± 0.053 |
| GCTTGTGTGA | 0.999 ± 0.01 |
| GCTTGTTACG | 0.98379 ± 0.00012 |
| GCTTGTTGGG | 1.02 ± 0.038 |
| GCTTTATGTA | 0.975 ± 0.025 |
| GCTTTCATTG | 1.014 ± 0.0046 |
| GCTTTCCTTA | 0.991 ± 0.04 |
| GCTTTGGTGA | 0.991 ± 0.019 |
| GCTTTGGTTT | 0.983 ± 0.022 |
| GCTTTGTTGG | 0.984 ± 0.035 |
| GCTTTTAGAT | 0.9794 ± 0.0028 |
| GCTTTTAGGA | 1 ± 0.038 |
| GCTTTTCATT | 0.988 ± 0.038 |
| GCTTTTCTTG | 1.01 ± 0.011 |
| GCTTTTGGAG | 1.008 ± 0.0047 |

| Sequence | switch fluorescence ratio |
| --- | --- |
| GCTTTTGGCC | 0.971 ± 0.02 |
| GGAAAAAGGG | 1 ± 0.02 |
| GGAAAAGAGC | 0.991 ± 0.049 |
| GGAAAAGGCT | 1.02 ± 0.07 |
| GGAAAAGGGA | 1.01 ± 0.049 |
| GGAAAAGGTT | 0.9955 ± 0.0073 |
| GGAAACACAG | 1.02 ± 0.035 |
| GGAAACAGGA | 1.02 ± 0.05 |
| GGAAACCCGC | 1.14 ± 0.071 |
| GGAAACGCGA | 1.54 ± 0.093 |
| GGAAACTGGT | 1.05 ± 0.069 |
| GGAAAGTAAA | 0.982 ± 0.014 |
| GGAAAGTCAG | 0.992 ± 0.027 |
| GGAAATACGA | 1.27 ± 0.036 |
| GGAAATCAGG | 0.989 ± 0.012 |
| GGAAATGGCG | 0.981 ± 0.1 |
| GGAAATTTGG | 0.993 ± 0.037 |
| GGAAATTTGT | 1.008 ± 0.0044 |
| GGAACACTGT | 0.9955 ± 0.0077 |
